The source of these data is PMC3432114.

One assay concerns the target RAGE (Homo sapiens) (UniProt Q15109). The note with it: cited from earlier work.
The target of assay [1] is N-methyl-D-aspartate receptor (NMDAR) of C44 murine erythroleukaemia (MEL) cell membranes (mouse (endogenous in C44 MEL cells)) (UniProt P35438).

Sequence of UniProt Q15109 (Q15109 23-404): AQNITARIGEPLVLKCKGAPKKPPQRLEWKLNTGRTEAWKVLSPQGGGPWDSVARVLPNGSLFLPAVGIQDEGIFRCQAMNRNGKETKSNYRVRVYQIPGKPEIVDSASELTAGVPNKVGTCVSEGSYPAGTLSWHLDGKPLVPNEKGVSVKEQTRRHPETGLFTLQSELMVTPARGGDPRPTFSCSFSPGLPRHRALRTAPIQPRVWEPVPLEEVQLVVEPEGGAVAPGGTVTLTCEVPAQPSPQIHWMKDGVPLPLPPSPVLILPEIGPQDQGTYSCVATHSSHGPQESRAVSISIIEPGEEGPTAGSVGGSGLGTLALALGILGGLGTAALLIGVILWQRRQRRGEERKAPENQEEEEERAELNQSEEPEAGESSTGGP
Sequence of HMGB1 (P09429 whole entry): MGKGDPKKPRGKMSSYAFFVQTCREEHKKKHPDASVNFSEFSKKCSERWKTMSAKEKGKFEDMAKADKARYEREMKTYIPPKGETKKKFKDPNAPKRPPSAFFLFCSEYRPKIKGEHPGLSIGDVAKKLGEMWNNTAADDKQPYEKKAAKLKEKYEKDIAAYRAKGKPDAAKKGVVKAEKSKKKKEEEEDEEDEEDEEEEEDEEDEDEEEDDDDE

Broadly, the Kd is the free concentration of one partner at which half of the binding sites on the other are occupied at equilibrium, for simple one-to-one binding. As to HMGB1 (from UniProt P09429), in the assay with RAGE (Homo sapiens), the dissociation constant Kd was 10 nM.
Substance “high mobility group box 1 (HMGB1) protein, eukaryotic recombinant (from UniProt P63159 1-215) (natural protein)” yielded a percent of differentiated (benzidine-positive) MEL cells after 24 h with HMBA and 250 pM HMGB1 (6% with HMBA alone; the increase abolished by MK-801 and antagonized by CGS 19755) in assay [1] of 12%.
